Test results published in patent US20030109416A1 (MOCHIDA PHARMACEUTICAL, published 2003).

Target: T1, extracellular domain of the human Fas ligand (produced in Pichia pastoris GS115) (human, UniProt P48023 103-281)
T1 construct: extracellular domain; also called human Fas ligand extracellular domain
T1 sequence (looked up): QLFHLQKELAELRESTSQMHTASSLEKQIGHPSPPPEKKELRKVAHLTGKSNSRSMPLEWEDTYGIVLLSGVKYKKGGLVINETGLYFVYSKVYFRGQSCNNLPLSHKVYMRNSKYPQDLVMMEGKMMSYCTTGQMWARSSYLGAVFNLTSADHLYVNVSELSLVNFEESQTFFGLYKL
Assay: affinity chromatography on immobilized hFas-Fc

binding result: binds
B1: hFas-Fc (chimeric protein of the extracellular domain of the human Fas antigen and Fc region of human IgG1) (Fc fusion, UniProt P25445 26-173, looked up)
chain: QVTDINSKGLELRKTVTTVETQNLEGLHHDGQFCHKPCPPGERKARDCTVNGDEPDCVPCQEGKEYTDKAHFSSKCRRCRLCDEGHGLEVEINCTRTQNTKCRCKPNFFCNSTVCEHCDPCTKCEHGIIKECTLTSNTKCKEEGSRSN
notes: extracellular domain; The construct limits are only in WO 95/13293; also called human Fas-Fc; product of plasmid pBF-Fc1; not shown: Fc region of human IgG1
